Measured values as given in patent US20220011297A1, “METHOD FOR PREDICTING EFFECT OF IMMUNE CHECKPOINT INHIBITOR” (NAGASAKI UNIVERSITY, priority 2018, published 2022).

System: lung cancer patients
Experiment: Multicenter study of nivolumab in lung cancer patients: adverse events (interstitial pneumonia)
Description: Multicenter study ([sequence] University Hospital, Nagasaki Genbaku Hospital) [Subjects] Lung cancer patients [Selection criteria]
Employed were patients who had been histologically confirmed to have lung cancer through computed tomography (any T, any N, and M1, stage IV), and
who were 20 to 75 years old with performance status (PS) of 0 and retaining the functions of main tissues, met the study criteria of our institution, and voluntarily submitted a consent form to participate in the study after receiving explanation on the characteristics of the study.
This blood collection is performed concomitantly with regular blood collection during hospitalization, and no additional puncture is performed for the blood collection.

Q: Which “interstitial pneumonia with DAD (diffuse alveolar damage), acute exacerbation” value (13 lung cancer patients given nivolumab, other two cases OP) does the source give for “nivolumab: human-type anti-PD-1 monoclonal antibody” here?
A: Its value is “TR01 and TR02 were presenting with DAD”.

Q: What about the death (among DAD cases, in spite of discontinuation of administration) of the same substance?
A: The death was “one case resulted in death”.
